Laboratory results from the supplement of paper PMC7125110.
± gives the standard error. Fewer inactive variants are shown than the library holds.

B1: glmS ribozyme (parent)
chain: AUAAAAGCGCCAGAACUACAGAAAUGUAGUUGACGAGGAGGAGGUUUAUCGAAUUUUCGGCGGAUGCCUCCAAA

How the values were obtained:
Details in all cases: with glucosamine-6-phosphate
glucosamine-6-phosphate [1] = variants of: B1; assay: self-cleavage kobs at 40 uM GlcN6P; higher = faster cleavage; RNA array
Summary of the method: (§1)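 A hybridised Cy3 probe tracked barcoded ribozyme variants, transcribed in situ by E. coli RNA polymerase on sequenced MiSeq chips, at 37 °C. The variants received 40 μM to 10 mM glucosamine-6-phosphate in HEPES/KCl/Mg(OAc)2 buffer. kobs came from decay fits and kcat and KM from weighted Michaelis–Menten fits.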

glucosamine-6-phosphate [2] = variants of: B1; assay: self-cleavage kobs at 10000 uM GlcN6P; higher = faster cleavage; RNA array
Summary of the method: as §1

glucosamine-6-phosphate [3] = variants of: B1; assay: self-cleavage kobs at 2500 uM GlcN6P; higher = faster cleavage; RNA array
Summary of the method: as §1

glucosamine-6-phosphate [4] = variants of: B1; assay: self-cleavage kobs at 160 uM GlcN6P; higher = faster cleavage; RNA array
Summary of the method: as §1

glucosamine-6-phosphate [5] = variants of: B1; assay: self-cleavage kobs at 640 uM GlcN6P; higher = faster cleavage; RNA array
Summary of the method: as §1

Variant	self-cleavage kobs at 40 uM GlcN6P (glucosamine-6-phosphate [1])	self-cleavage kobs at 10000 uM GlcN6P (glucosamine-6-phosphate [2])	self-cleavage kobs at 2500 uM GlcN6P (glucosamine-6-phosphate [3])	self-cleavage kobs at 160 uM GlcN6P (glucosamine-6-phosphate [4])	self-cleavage kobs at 640 uM GlcN6P (glucosamine-6-phosphate [5])
G29C A36C U49C U54G	< 1e-05 s⁻¹	–	–	–	–
G29U G43A G63A	< 1e-05 s⁻¹	–	–	–	–
C16U G40U U56A C71G	3.89e-05 ± 1.1e-05 s⁻¹	0.00169 ± 0.00032 s⁻¹	–	–	–
C16U U30A C58G A73U	< 1e-05 s⁻¹	–	–	–	–
G21U C67G	9.41e-05 ± 2.8e-05 s⁻¹	0.00119 ± 0.00023 s⁻¹	0.000139 ± 4.1e-05 s⁻¹	–	–
U30C U45A U47C C50U G60U C68U	< 1e-05 s⁻¹	–	–	–	–
A18C	0.00108 ± 0.0003 s⁻¹	–	–	0.00647 ± 0.0023 s⁻¹	0.0169 ± 0.0041 s⁻¹
A18G	0.00161 ± 0.00045 s⁻¹	0.0231 ± 0.01 s⁻¹	–	–	–
C16U G60C C67A	< 1e-05 s⁻¹	–	–	–	–
U30C G37U	< 1e-05 s⁻¹	–	–	–	–
U30A C61U	< 1e-05 s⁻¹	< 1e-05 s⁻¹	–	–	< 1e-05 s⁻¹
G29C C34U	< 1e-05 s⁻¹	< 1e-05 s⁻¹	< 1e-05 s⁻¹	< 1e-05 s⁻¹	< 1e-05 s⁻¹
C16A C70U	5.31e-05 ± 7.6e-06 s⁻¹	0.0015 ± 0.00026 s⁻¹	0.000365 ± 5.1e-05 s⁻¹	0.000117 ± 3.3e-05 s⁻¹	0.000192 ± 2.7e-05 s⁻¹
C16U A42U U45C G59A C68U	< 1e-05 s⁻¹	< 1e-05 s⁻¹	–	–	–
G29U U45A C61A	< 1e-05 s⁻¹	–	–	–	–
G29U U56G G62U	< 1e-05 s⁻¹	–	–	–	–
C16G G63A	< 1e-05 s⁻¹	< 1e-05 s⁻¹	–	–	–
A23C C71U	0.00121 ± 0.0003 s⁻¹	–	–	0.000719 ± 0.0002 s⁻¹	0.00652 ± 0.0018 s⁻¹
G29C U56G C70U	6.27e-05 ± 2.2e-05 s⁻¹	0.00013 ± 3.2e-05 s⁻¹	–	–	–
U30A G41A G60A C70U	< 1e-05 s⁻¹	–	–	–	–
C16G C34G G60U C61G U65A C67G	8.29e-05 ± 1.8e-05 s⁻¹	–	0.000198 ± 6.9e-05 s⁻¹	–	–
G29C U49A	< 1e-05 s⁻¹	< 1e-05 s⁻¹	–	–	–
U30C G35A C50G C61U A64G	0.000165 ± 5.1e-05 s⁻¹	–	–	–	–
C16U C71U	0.000761 ± 6.6e-05 s⁻¹	0.0301 ± 0.0059 s⁻¹	0.0356 ± 0.017 s⁻¹	0.00136 ± 0.00015 s⁻¹	0.00431 ± 0.00077 s⁻¹
G29A A48G	< 1e-05 s⁻¹	–	–	< 1e-05 s⁻¹	< 1e-05 s⁻¹
G29C G37U G63U	< 1e-05 s⁻¹	–	–	–	–
G29U U56A	4.68e-05 ± 1.4e-05 s⁻¹	0.00285 ± 0.00045 s⁻¹	–	9.32e-05 ± 2e-05 s⁻¹	0.000211 ± 7e-05 s⁻¹

Variant	self-cleavage kobs at 40 uM GlcN6P (glucosamine-6-phosphate [1])	self-cleavage kobs at 10000 uM GlcN6P (glucosamine-6-phosphate [2])	self-cleavage kobs at 2500 uM GlcN6P (glucosamine-6-phosphate [3])	self-cleavage kobs at 160 uM GlcN6P (glucosamine-6-phosphate [4])	self-cleavage kobs at 640 uM GlcN6P (glucosamine-6-phosphate [5])
C16U U47C	7.47e-05 ± 1.5e-05 s⁻¹	0.00228 ± 0.00034 s⁻¹	0.00165 ± 0.00046 s⁻¹	–	–
C16A G38A	< 1e-05 s⁻¹	–	–	–	–
G29A U55C C61G	< 1e-05 s⁻¹	–	–	–	–
U30A C70U	0.000214 ± 3.6e-05 s⁻¹	0.00358 ± 0.00063 s⁻¹	0.00125 ± 0.00027 s⁻¹	0.000386 ± 7.4e-05 s⁻¹	0.000765 ± 0.00011 s⁻¹
C16U G32U A48C G59C	< 1e-05 s⁻¹	< 1e-05 s⁻¹	–	–	–
C16G U57C	< 1e-05 s⁻¹	3.37e-05 ± 1.2e-05 s⁻¹	–	< 1e-05 s⁻¹	–
G29A A36U A39G G41U C67G	< 1e-05 s⁻¹	–	< 1e-05 s⁻¹	–	–
C16G C34A G38C U65C	< 1e-05 s⁻¹	–	–	–	–
G29U A33U G38C G40A	< 1e-05 s⁻¹	–	–	–	–
C16A C58U	< 1e-05 s⁻¹	3.14e-05 ± 1.3e-05 s⁻¹	–	< 1e-05 s⁻¹	–
C16G G62U C67G	< 1e-05 s⁻¹	–	–	–	–
U30C G43U C70A	< 1e-05 s⁻¹	–	–	–	–
U30A A33U C34G G37A	< 1e-05 s⁻¹	–	–	–	–
C16U C70U	0.00111 ± 0.00017 s⁻¹	0.00694 ± 0.0028 s⁻¹	0.00209 ± 0.0004 s⁻¹	0.000974 ± 0.0002 s⁻¹	0.00284 ± 0.0011 s⁻¹
G26U C50G A52C U56G G66C C67U C71U	0.000243 ± 7.9e-05 s⁻¹	0.000101 ± 2.7e-05 s⁻¹	–	–	0.000548 ± 0.00021 s⁻¹
U30G A33C A42C	< 1e-05 s⁻¹	< 1e-05 s⁻¹	–	–	–
C16A G26A C68G	3.64e-05 ± 1.7e-05 s⁻¹	3.65e-05 ± 1.5e-05 s⁻¹	–	–	–
G29A A39G	0.000267 ± 3.9e-05 s⁻¹	0.0102 ± 0.0018 s⁻¹	0.00297 ± 0.00077 s⁻¹	–	0.00148 ± 0.00051 s⁻¹
C16A G32C G41C C68U C70A C71U	< 1e-05 s⁻¹	–	–	–	–
U30C A48U	< 1e-05 s⁻¹	< 1e-05 s⁻¹	–	< 1e-05 s⁻¹	< 1e-05 s⁻¹
U30A A42G	0.000294 ± 7.3e-05 s⁻¹	0.0172 ± 0.0059 s⁻¹	–	–	0.0017 ± 0.00047 s⁻¹
G29U G35A A48G A53C	< 1e-05 s⁻¹	–	–	–	< 1e-05 s⁻¹
G29C A36U	< 1e-05 s⁻¹	–	–	–	< 1e-05 s⁻¹
C16U C67U	0.000314 ± 3.3e-05 s⁻¹	0.0126 ± 0.0021 s⁻¹	0.00294 ± 0.00071 s⁻¹	0.000412 ± 0.00014 s⁻¹	0.00186 ± 0.00024 s⁻¹
U30C C50A A53G U69C C70G	5.5e-05 ± 1.9e-05 s⁻¹	–	–	–	–
U30A G60U C71U	< 1e-05 s⁻¹	< 1e-05 s⁻¹	–	–	–
G29C A48G	< 1e-05 s⁻¹	–	< 1e-05 s⁻¹	< 1e-05 s⁻¹	< 1e-05 s⁻¹
